In US20180044404A1:

Target: CD200 on FBL cells transduced with CD200 (CD200+ FBL)
Assay: cell-based or functional assay

accumulation of transduced T cells over multiple stimulations with irradiated CD200+ FBL: 3 fold
Substance: CD200R-9aas-CD28Cys (murine construct V) (from UniProt Q9ES57 26-229; P31041 142-150; P31041 151-218)
lysis of CD200+ FBL cells (CFSE-based cytotoxicity assay): > 40%
